Measured values: patent publication US20150344570A1 (published 2015)

Assays:
FcγRIIa R [1] = molecular target: T1, FcγRIIa R (human, UniProt P12318 34-217); test: ratio of He/Con_2aR to He/Con_2b (binding to FcγRIIb as reference); SPR
T1 construct: extracellular domain; Soluble His-tagged extracellular domain expressed in FreeStyle293 cells; analyte in Biacore; also called FcgRIIa R; FcgRIIaR; not shown: His tag attached to the C terminus
T1 sequence (looked up): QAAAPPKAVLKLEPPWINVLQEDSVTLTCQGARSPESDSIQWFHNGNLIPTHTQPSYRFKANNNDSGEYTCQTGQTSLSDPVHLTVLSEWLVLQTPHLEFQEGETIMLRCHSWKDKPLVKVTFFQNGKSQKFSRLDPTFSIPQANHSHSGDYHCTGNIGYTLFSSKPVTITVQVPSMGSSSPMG

FcγRIIb = molecular target: T2, FcγRIIb (human, UniProt P31994 43-217); test: SPR (Biacore), antibody captured via antigen peptide, FcγR as analyte
T2 construct: extracellular domain; Soluble His-tagged extracellular domain expressed in FreeStyle293 cells; analyte in Biacore; also called FcgRIIb; 2b; not shown: His tag attached to the C terminus
T2 sequence (looked up): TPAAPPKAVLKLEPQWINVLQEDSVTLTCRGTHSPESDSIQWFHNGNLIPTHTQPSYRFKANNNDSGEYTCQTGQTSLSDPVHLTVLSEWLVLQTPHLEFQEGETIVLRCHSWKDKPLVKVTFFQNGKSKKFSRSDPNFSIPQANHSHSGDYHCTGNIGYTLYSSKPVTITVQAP
Procedure: (§1) The heterodimerized antibodies He Abs in which one of the H chains was introduced with an alteration were assayed for their binding activities to each activating FcγR and inhibitory FcγR according to the method described in Example 4. […] The activating FcγRs in FIGS. 26, 27, 28, and 29 are FcγRIa, FcγRIIa (R), FcγRIIa (H), and FcγRIIIa, respectively.
(§2) Analysis of interaction between objective antibody and the FcγR was carried out using Biacore T100 (GE Healthcare). HBS-EP+ (GE Healthcare) was used as the running buffer, and the measurement temperature was set to 25° C. Chips produced by immobilizing the antigen peptide by the amine coupling method to a Series S Sencor Chip CM5 (GE Healthcare), or alternatively, chips produced by allowing preliminarily biotinylated antigen peptides to interact with and immobilize onto a Series S Sensor Chip SA (certified) (GE Healthcare) were used. Antibodies of interest were captured onto an antigen peptide-immobilized chip, and allowed to interact to each FcγR diluted with running buffer. To regenerate and repeatedly use the chip, the antibodies captured on the chip were washed off by reacting 10 mM glycine-HCl, pH 1.5.

FcγRIIa R [2] = molecular target: T1, FcγRIIa R; test: as above
Procedure: as §1, §2

| Binder | He_2aR/2b (IIaR/IIb) (FcγRIIa R [1]) | He/Con_2b (IIb binding relative to GpH7-A5/GpH7-B3/GpL16-k0) (FcγRIIb) | He/Con_2aR (IIaR binding relative to GpH7-A5/GpH7-B3/GpL16-k0) (FcγRIIa R [2]) |
| --- | --- | --- | --- |
| GpH7-A5/GpH7-B3 variant N325_11K/GpL16-k0 (antibody, human IgG1, kappa, Heterodimerized anti-glypican-3 IgG1 antibody; alteration only in the GpH7-B3 H chain; position in EU numbering; also called He Ab) heavy 1: not shown heavy 2: not shown light: DIVMTQSPLSLPVTPGEPASISCQASESLVHSNRNTYLHWYLQKPGQSPQLLIYKVSNRFSGVPDRFSGSGSGTDFTLKISRVEAEDVGVYYCSQNTHVPPTFGQGTKVEIERTVAAPSVFIFPPSDEQLKSGTASVVCLLNNFYPREAKVQWKVDNALQSGNSQESVTEQDSKDSTYSLSSTLTLSKADYEKHKVYACEVTHQGLSSPVTKSFNRGEC | 1.57 | 10.4 % of control (control = 100) | 16.2 % of control (control = 100) |
| GpH7-A5/GpH7-B3 variant P329_04F/GpL16-k0 (antibody, human IgG1, kappa, Heterodimerized anti-glypican-3 IgG1 antibody; alteration only in the GpH7-B3 H chain; position in EU numbering; also called He Ab) heavy 1: not shown heavy 2: not shown light: DIVMTQSPLSLPVTPGEPASISCQASESLVHSNRNTYLHWYLQKPGQSPQLLIYKVSNRFSGVPDRFSGSGSGTDFTLKISRVEAEDVGVYYCSQNTHVPPTFGQGTKVEIERTVAAPSVFIFPPSDEQLKSGTASVVCLLNNFYPREAKVQWKVDNALQSGNSQESVTEQDSKDSTYSLSSTLTLSKADYEKHKVYACEVTHQGLSSPVTKSFNRGEC | 1.39 | 32.2 % of control (control = 100) | 44.7 % of control (control = 100) |
| GpH7-A5/GpH7-B3 variant P329_08L/GpL16-k0 (antibody, human IgG1, kappa, Heterodimerized anti-glypican-3 IgG1 antibody; alteration only in the GpH7-B3 H chain; position in EU numbering; also called He Ab) heavy 1: not shown heavy 2: not shown light: DIVMTQSPLSLPVTPGEPASISCQASESLVHSNRNTYLHWYLQKPGQSPQLLIYKVSNRFSGVPDRFSGSGSGTDFTLKISRVEAEDVGVYYCSQNTHVPPTFGQGTKVEIERTVAAPSVFIFPPSDEQLKSGTASVVCLLNNFYPREAKVQWKVDNALQSGNSQESVTEQDSKDSTYSLSSTLTLSKADYEKHKVYACEVTHQGLSSPVTKSFNRGEC | 1.47 | 29.1 % of control (control = 100) | 42.8 % of control (control = 100) |
| GpH7-A5/GpH7-B3 variant P329_03V/GpL16-k0 (antibody, human IgG1, kappa, Heterodimerized anti-glypican-3 IgG1 antibody; alteration only in the GpH7-B3 H chain; position in EU numbering; also called He Ab) heavy 1: not shown heavy 2: not shown light: DIVMTQSPLSLPVTPGEPASISCQASESLVHSNRNTYLHWYLQKPGQSPQLLIYKVSNRFSGVPDRFSGSGSGTDFTLKISRVEAEDVGVYYCSQNTHVPPTFGQGTKVEIERTVAAPSVFIFPPSDEQLKSGTASVVCLLNNFYPREAKVQWKVDNALQSGNSQESVTEQDSKDSTYSLSSTLTLSKADYEKHKVYACEVTHQGLSSPVTKSFNRGEC | 1.4 | 38.5 % of control (control = 100) | 53.8 % of control (control = 100) |
| GpH7-A5/GpH7-B3 variant P329_02A/GpL16-k0 (antibody, human IgG1, kappa, Heterodimerized anti-glypican-3 IgG1 antibody; alteration only in the GpH7-B3 H chain; position in EU numbering; also called He Ab) heavy 1: not shown heavy 2: not shown light: DIVMTQSPLSLPVTPGEPASISCQASESLVHSNRNTYLHWYLQKPGQSPQLLIYKVSNRFSGVPDRFSGSGSGTDFTLKISRVEAEDVGVYYCSQNTHVPPTFGQGTKVEIERTVAAPSVFIFPPSDEQLKSGTASVVCLLNNFYPREAKVQWKVDNALQSGNSQESVTEQDSKDSTYSLSSTLTLSKADYEKHKVYACEVTHQGLSSPVTKSFNRGEC | 1.45 | 40.5 % of control (control = 100) | 58.9 % of control (control = 100) |
| GpH7-A5/GpH7-B3 variant P329_06M/GpL16-k0 (antibody, human IgG1, kappa, Heterodimerized anti-glypican-3 IgG1 antibody; alteration only in the GpH7-B3 H chain; position in EU numbering; also called He Ab) heavy 1: not shown heavy 2: not shown light: DIVMTQSPLSLPVTPGEPASISCQASESLVHSNRNTYLHWYLQKPGQSPQLLIYKVSNRFSGVPDRFSGSGSGTDFTLKISRVEAEDVGVYYCSQNTHVPPTFGQGTKVEIERTVAAPSVFIFPPSDEQLKSGTASVVCLLNNFYPREAKVQWKVDNALQSGNSQESVTEQDSKDSTYSLSSTLTLSKADYEKHKVYACEVTHQGLSSPVTKSFNRGEC | 1.47 | 29.1 % of control (control = 100) | 42.7 % of control (control = 100) |
| GpH7-A5/GpH7-B3 variant P329_11K/GpL16-k0 (antibody, human IgG1, kappa, Heterodimerized anti-glypican-3 IgG1 antibody; alteration only in the GpH7-B3 H chain; position in EU numbering; also called He Ab) heavy 1: not shown heavy 2: not shown light: DIVMTQSPLSLPVTPGEPASISCQASESLVHSNRNTYLHWYLQKPGQSPQLLIYKVSNRFSGVPDRFSGSGSGTDFTLKISRVEAEDVGVYYCSQNTHVPPTFGQGTKVEIERTVAAPSVFIFPPSDEQLKSGTASVVCLLNNFYPREAKVQWKVDNALQSGNSQESVTEQDSKDSTYSLSSTLTLSKADYEKHKVYACEVTHQGLSSPVTKSFNRGEC | 1.79 | 16.9 % of control (control = 100) | 30.2 % of control (control = 100) |
| GpH7-A5/GpH7-B3 variant N325_19Q/GpL16-k0 (antibody, human IgG1, kappa, Heterodimerized anti-glypican-3 IgG1 antibody; alteration only in the GpH7-B3 H chain; position in EU numbering; also called He Ab) heavy 1: not shown heavy 2: not shown light: DIVMTQSPLSLPVTPGEPASISCQASESLVHSNRNTYLHWYLQKPGQSPQLLIYKVSNRFSGVPDRFSGSGSGTDFTLKISRVEAEDVGVYYCSQNTHVPPTFGQGTKVEIERTVAAPSVFIFPPSDEQLKSGTASVVCLLNNFYPREAKVQWKVDNALQSGNSQESVTEQDSKDSTYSLSSTLTLSKADYEKHKVYACEVTHQGLSSPVTKSFNRGEC | 1.33 | 69.1 % of control (control = 100) | 92.1 % of control (control = 100) |
| GpH7-A5/GpH7-B3 variant P329_10E/GpL16-k0 (antibody, human IgG1, kappa, Heterodimerized anti-glypican-3 IgG1 antibody; alteration only in the GpH7-B3 H chain; position in EU numbering; also called He Ab) heavy 1: not shown heavy 2: not shown light: DIVMTQSPLSLPVTPGEPASISCQASESLVHSNRNTYLHWYLQKPGQSPQLLIYKVSNRFSGVPDRFSGSGSGTDFTLKISRVEAEDVGVYYCSQNTHVPPTFGQGTKVEIERTVAAPSVFIFPPSDEQLKSGTASVVCLLNNFYPREAKVQWKVDNALQSGNSQESVTEQDSKDSTYSLSSTLTLSKADYEKHKVYACEVTHQGLSSPVTKSFNRGEC | 1.23 | 52.7 % of control (control = 100) | 64.8 % of control (control = 100) |
| GpH7-A5/GpH7-B3 variant P329_12R/GpL16-k0 (antibody, human IgG1, kappa, Heterodimerized anti-glypican-3 IgG1 antibody; alteration only in the GpH7-B3 H chain; position in EU numbering; also called He Ab) heavy 1: not shown heavy 2: not shown light: DIVMTQSPLSLPVTPGEPASISCQASESLVHSNRNTYLHWYLQKPGQSPQLLIYKVSNRFSGVPDRFSGSGSGTDFTLKISRVEAEDVGVYYCSQNTHVPPTFGQGTKVEIERTVAAPSVFIFPPSDEQLKSGTASVVCLLNNFYPREAKVQWKVDNALQSGNSQESVTEQDSKDSTYSLSSTLTLSKADYEKHKVYACEVTHQGLSSPVTKSFNRGEC | 1.66 | 17.6 % of control (control = 100) | 29.3 % of control (control = 100) |
| GpH7-A5/GpH7-B3 variant N325_16H/GpL16-k0 (antibody, human IgG1, kappa, Heterodimerized anti-glypican-3 IgG1 antibody; alteration only in the GpH7-B3 H chain; position in EU numbering; also called He Ab) heavy 1: not shown heavy 2: not shown light: DIVMTQSPLSLPVTPGEPASISCQASESLVHSNRNTYLHWYLQKPGQSPQLLIYKVSNRFSGVPDRFSGSGSGTDFTLKISRVEAEDVGVYYCSQNTHVPPTFGQGTKVEIERTVAAPSVFIFPPSDEQLKSGTASVVCLLNNFYPREAKVQWKVDNALQSGNSQESVTEQDSKDSTYSLSSTLTLSKADYEKHKVYACEVTHQGLSSPVTKSFNRGEC | 1.27 | 70.1 % of control (control = 100) | 89 % of control (control = 100) |
| GpH7-A5/GpH7-B3 variant P329_09D/GpL16-k0 (antibody, human IgG1, kappa, Heterodimerized anti-glypican-3 IgG1 antibody; alteration only in the GpH7-B3 H chain; position in EU numbering; also called He Ab) heavy 1: not shown heavy 2: not shown light: DIVMTQSPLSLPVTPGEPASISCQASESLVHSNRNTYLHWYLQKPGQSPQLLIYKVSNRFSGVPDRFSGSGSGTDFTLKISRVEAEDVGVYYCSQNTHVPPTFGQGTKVEIERTVAAPSVFIFPPSDEQLKSGTASVVCLLNNFYPREAKVQWKVDNALQSGNSQESVTEQDSKDSTYSLSSTLTLSKADYEKHKVYACEVTHQGLSSPVTKSFNRGEC | 1.27 | 53.5 % of control (control = 100) | 67.8 % of control (control = 100) |
| GpH7-A5/GpH7-B3 variant N325_12R/GpL16-k0 (antibody, human IgG1, kappa, Heterodimerized anti-glypican-3 IgG1 antibody; alteration only in the GpH7-B3 H chain; position in EU numbering; also called He Ab) heavy 1: not shown heavy 2: not shown light: DIVMTQSPLSLPVTPGEPASISCQASESLVHSNRNTYLHWYLQKPGQSPQLLIYKVSNRFSGVPDRFSGSGSGTDFTLKISRVEAEDVGVYYCSQNTHVPPTFGQGTKVEIERTVAAPSVFIFPPSDEQLKSGTASVVCLLNNFYPREAKVQWKVDNALQSGNSQESVTEQDSKDSTYSLSSTLTLSKADYEKHKVYACEVTHQGLSSPVTKSFNRGEC | 1.37 | 19.1 % of control (control = 100) | 26.1 % of control (control = 100) |
| GpH7-A5/GpH7-B3 variant P329_07I/GpL16-k0 (antibody, human IgG1, kappa, Heterodimerized anti-glypican-3 IgG1 antibody; alteration only in the GpH7-B3 H chain; position in EU numbering; also called He Ab) heavy 1: not shown heavy 2: not shown light: DIVMTQSPLSLPVTPGEPASISCQASESLVHSNRNTYLHWYLQKPGQSPQLLIYKVSNRFSGVPDRFSGSGSGTDFTLKISRVEAEDVGVYYCSQNTHVPPTFGQGTKVEIERTVAAPSVFIFPPSDEQLKSGTASVVCLLNNFYPREAKVQWKVDNALQSGNSQESVTEQDSKDSTYSLSSTLTLSKADYEKHKVYACEVTHQGLSSPVTKSFNRGEC | 1.44 | 34.6 % of control (control = 100) | 49.6 % of control (control = 100) |
